Results reported in patent US20230399394A1 (SUNSHINE GUOJIAN PHARMACEUTICAL SHANGHAI, published 2023).
Numbering of substitutions follows the chain as printed.

Tests used:
[1] = molecular target: T1, IL-33 mutant protein D65A (human, UniProt O95760 112-270); assay: ELISA as Example 9; row D65A
T1 construct: Prokaryotic expression
T1 chain: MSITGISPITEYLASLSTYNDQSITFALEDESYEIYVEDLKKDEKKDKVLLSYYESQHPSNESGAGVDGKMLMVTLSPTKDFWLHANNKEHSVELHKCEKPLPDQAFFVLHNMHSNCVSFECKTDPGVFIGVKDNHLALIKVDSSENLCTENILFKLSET
Protocol: (§1) SA protein was diluted to 2 μg/mL to coat ELISA plate at 100 μL/well overnight at 4° C. The plate was washed with PBST (PBS containing 0.05% Tween20) for 3 times, and blocked with 2% BSA prepared in PBS at 200 μL/well, at room temperature for 2 h. After the plate was washed twice with PBST, IL-33-his-biotin protein was diluted to 1 μg/mL with 1% BSA prepared in PBST, and was added to ELISA plate at 100 μL/well. The plate was incubated at room temperature for 1 h, and each monoclonal antibody was diluted with 1% BSA prepared in PBST in a 3-fold gradient. The highest concentration of antibody was 10 μg/mL, and the antibody was diluted for 12 gradients. Each diluted monoclonal antibody was added to ELISA wells with 100 μL/well, and the plate was incubated at room temperature for 1 h. Each sample was added to duplicate wells in parallel. The plate was washed with PBST for 3 times, and HRP-anti human IgG Fc secondary antibody prepared with PBST was diluted at an appropriate ratio, and was added to ELISA wells at 100 μL/well. […] Each reaction solution was shaken uniformly and OD450 nm was read on a microplate reader. The data was analyzed and EC₅₀ was calculated.
(§2) Subsequently, according to the experimental method of Example 9, the affinity of the above mutant proteins to 874F7-Hu1 was determined, and IL-33 proteins (WT-1, WT-2, WT-3, and WT-4) without any mutation were set as controls.

[2] = molecular target: T2, IL-33 mutant protein P59A (human, UniProt O95760 112-270); assay: ELISA as Example 9; row P59A
T2 construct: Prokaryotic expression
T2 chain: T1 chain with P59A, A65D
Protocol: as §1, §2

[3] = molecular target: T1, IL-33 mutant protein D65A; assay: ELISA as Example 9; row D65A against WT-3
Protocol: as §1, §2

[4] = molecular target: T3, IL-33 mutant protein L51A (human, UniProt O95760 112-270); assay: ELISA as Example 9; row L51A against WT-2
T3 construct: Prokaryotic expression
T3 chain: T1 chain with L51A, A65D
Protocol: as §1, §2

[5] = molecular target: T2, IL-33 mutant protein P59A; assay: ELISA as Example 9; row P59A against WT-1
Protocol: as §1, §2

[6] = molecular target: T4, IL-33 protein without any mutation (WT) (human, UniProt O95760 112-270); assay: ELISA as Example 9; row WT-4, the reference itself
T4 construct: Control of the alanine scan (four runs WT-1 to WT-4); also called WT-1; WT-2
T4 sequence: T1 chain with A65D
Protocol: as §1, §2

Human IL-33-his = molecular target: T5, Human IL-33-his (human, UniProt O95760 112-270, biotinylated with EZ-Link NHS-Biotin where used as IL-33-his-biotin); assay: competition ELISA as Example 10, ST2-Fc on plate; competitor ST2-Fc
T5 construct: Used plain (SPR, cell assays) and biotinylated (ELISA); also called IL-33-his-biotin
T5 sequence: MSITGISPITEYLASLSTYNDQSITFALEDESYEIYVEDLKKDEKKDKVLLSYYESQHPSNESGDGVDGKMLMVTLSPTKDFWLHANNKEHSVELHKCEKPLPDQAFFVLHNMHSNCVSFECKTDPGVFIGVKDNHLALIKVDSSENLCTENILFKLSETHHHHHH
Protocol: ST2-Fc protein was diluted to 1 μg/mL with ELISA coating solution to coat ELISA plate with 100 μL/well. The plate was placed in a wet box at 4° C. for 16 h for coating. The ELISA plate was washed 3 times with PBST, and then was blocked with 2% BSA prepared in PBS at 200 μL/well at room temperature for 2 h. The plate was washed once with PBST, and was patted dry to remove the excess blocking solution. Each monoclonal antibody was diluted with 1% BSA prepared in PBST in a 3-fold gradient. The highest concentration of antibody was 10 μg/mL, and the antibody was diluted for 11 gradients. The diluted antibody was mixed 1:1 with 10 ng/ml IL-33-his-biotin, and then the mixture was added into the ELISA well at 100 μL/well. The plate was incubated at room temperature for 1 h. Each concentration was added to duplicate wells in parallel (maximum final concentration of antibody was […], final concentration of IL-33-his-biotin was 5 ng/mL). Unbound or non-specifically bound primary antibodies were washed out. According to the instructions of the antibody, HRP labeled streptavidin secondary antibody was diluted to an appropriate concentration with antibody diluent solution, then it was added to ELISA plate with 100 μL/well, and was incubated at room temperature for 1 h. The ELISA plate was washed with PBST for 5 times, and was patted dry on absorbent paper to remove excess liquid. TMB developing solution was added with 100 μL/well for development to an appropriate degree. 2M H₂SO₄ was added with 70 μL/well to terminate development, and the absorbance was measured at 450 nm on a multifunctional microplate reader. The data were analyzed.
The blocking effect of the above humanized antibodies on the binding of IL-33 to its receptor ST2 was determined by the ELISA method, and the relevant experimental methods were referred to Example 10.

B1: 874F7-Hu1 (antibody, human IgG4 S228P, kappa)
heavy: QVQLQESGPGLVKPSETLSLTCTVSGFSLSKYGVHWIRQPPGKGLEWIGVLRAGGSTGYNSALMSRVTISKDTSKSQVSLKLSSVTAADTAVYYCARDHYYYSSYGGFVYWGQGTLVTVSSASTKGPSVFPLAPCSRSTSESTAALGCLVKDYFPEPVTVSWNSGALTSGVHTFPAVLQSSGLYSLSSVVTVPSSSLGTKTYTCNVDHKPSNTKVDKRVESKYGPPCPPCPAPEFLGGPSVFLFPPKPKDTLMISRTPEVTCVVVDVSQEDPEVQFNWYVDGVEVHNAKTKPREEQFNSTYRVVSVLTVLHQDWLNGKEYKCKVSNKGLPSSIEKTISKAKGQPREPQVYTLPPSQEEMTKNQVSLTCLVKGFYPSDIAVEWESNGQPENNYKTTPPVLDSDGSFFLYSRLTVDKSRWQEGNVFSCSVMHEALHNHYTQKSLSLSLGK
light: DIQMTQSPSSVSASVGDRVTITCLASQTIGAWLAWYQQKPGKSPKLLIYAATRLADGVPSRFSGSGSGTDFTLTISSLQPEDFATYYCQQLDSSPYTFGQGTKVEIKRTVAAPSVFIFPPSDEQLKSGTASVVCLLNNFYPREAKVQWKVDNALQSGNSQESVTEQDSKDSTYSLSSTLTLSKADYEKHKVYACEVTHQGLSSPVTKSFNRGEC
notes: also called 874F7-Hul; humanized antibody 874F7-Hu1
EC50 [1]: 35.3 nM
EC50 [2]: 0.12 nM
Affinity decline ratio [3]: 192 fold
Affinity decline ratio [4]: 6.8 fold
Affinity decline ratio [5]: 0.5 fold
Affinity decline ratio [6]: 1 fold
IC50 (Human IL-33-his): 0.451 nM
